Source: US20170130226, “APTAMERS AGAINST EGFR AND THERAPEUTIC USES THEREOF” (ALTERMUNE LIMITED, published 2017)

The binders below were run against EGFR (UniProt P00533 P00533:25-645) (assay: SPR; PBS, 5 mM MgCl2, 20 C). Details: tags: R&D Systems; amine-coupled to sensor chip; label: 5' biotin.
Method: Aptamer binding to EGFR recombinant protein was assessed by surface plasmon resonance (SPR). SPR experiments were performed on a 404pi system (BiOptix, Boulder, Colo.), at a constant temperature of 20° C., 20 μL min⁻¹ flow rate, using running buffer (degassed PBS, 5 mM MgCl₂, 0.05% Tween) for all coupling and capture steps. 0.1 M N-hydroxysuccinimide (NHS) in MOPS, 0.4 M 1-ethyl-3-(3-dimethylaminopropyl) carbodiimide hydrochloride (EDC), 1 M ethanolamine hydrochloride (pH 8.5) and 10 mM sodium acetate pH 4.5, were from Sigma (St. Louis, Mo.). EGFR was obtained from R&D Systems (Minneapolis, Minn.). Three 96 well plates of oligonucleotides were synthesized by solid phase phosphoramidite chemistry by Boston Open Labs (Cambridge, Mass.) with a 5′ biotin.
The surface in all four channels of a CDM150 sensor chip (BiOptix) was activated by injecting 140 μL of a 1:1 mixture (v/v) of EDC and NHS. Then 350 μL of 285 nM EGFR in 10 mM sodium acetate pH 4.5 was injected in all 4 channels and covalently bound to a density of ˜8000 Response Units (RU) over 1050 sec. Finally, the surface was blocked by an injection of 200 μL 1 M ethanolamine hydrochloride.

Binding result, binds:
GGACGGAUUUAAUCGCCGUAGAAAAGCAUGUCAAAGCCGGAACCGUCC (ssRNA, 2'-F all C and U and A33) [ALT102125.01]
GGACGGAUUUAAUCGCCGUAGAAAAGCAUGUCAAAGCCGGAACCGUCC (ssRNA, 2'-F all C and U; 2'-OMe G6) [ALT102063.01]
GGACGGAUUUAAUCGCCGUAGAAAAGCAUGUCAAAGCCGGAACCGUCC (ssRNA, 2'-F all C and U except 2'-OMe C4) [ALT102061.01]
GGACGGAUUUAAUCGCCGUAGAAAAGCAUGUCAAAGCCGGAACCGUCC (ssRNA, 2'-F all C and U; 2'-OMe G5) [ALT102062.01]
